Molecular target: HBsAg (patient serum)
Test: Jacalin-bead fractionation of patient serum, HBsAg measured by CLIA

Substance: Jacalin lectin (from UniProt P18670 1-133)
- share of the total serum HBsAg that binds to Jacalin: 5%

Source: patent US20210283246A1
